The supplement of paper PMC7877785
± gives the uncertainty stated by the source.

Assay: self-splicing fitness, log relative to wild type (ln ratio); higher = more splicing; Tetrahymena group I intron in knt gene, E. coli kanamycin selection, DiMSum; sequences stand for … in CUCUCU…GGAGGGAAAAGUUAUCAGGCAUGCACCUGGUAGCUAGUCUUUAAACCAAUAGAUUGCAUCGGUUUAAAAGGCAAGACCGUCAAAUUGCGGGAAAGGGGUCAACAGCCGUUCAGUACCAAGUCUCAGGGGAAACUUUGAGAUGGCCUUGCAAAGGGUAUGGUAAUAAGCUGACGGACAUGGUCCUAACCACGCAGCCAAGUCCUAAGUCAACAGAUCUUCUGUUGAUAUGGAUGCAGUUCACAGACUAAAUGUCGGUCGGGGAAGAUGUAUUCUUCUCAUAAGAUAUAGUCGGACCUCUCCUUAAUGGGAGCUAGCGGAUGAAGUGAUGCAACACUGGAGCCGCUGGGAACUAAUUUGUAUGCGAAAGUAUAUUGAUUAGUUUUGGAGUACUCGUGGUCG
In short: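 Pooled colonies went to amplicon sequencing on an Illumina HiSeq 2500 after six replicate transformations. The plates were LB agar with 100 μg/mL carbenicillin, 50 μM IPTG and 0.2% rhamnose, with or without 25 μg/mL kanamycin, incubated overnight at 37°C or 30°C. The E. coli BL21(DE3) library had all eight P1ex-region intron nucleotides randomised, the intron placed in the knt kanamycin-resistance gene on pET-22b(+). DiMSum fitness is the error-weighted combination of replicate fold changes, kanamycin against none, normalised to wild type.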

Sequence	self-splicing fitness (ln) (30 °C)	self-splicing fitness (ln) (37 °C)
ACGGAGCAAUAUUACGCCUC	-2.43 ± 0.43	-1.82 ± 0.27
ACGGAGCAAUAUUACGCCUG	-3.41 ± 0.2	-1.52 ± 0.19
ACGGAGCAAUAUUACGCUCU	-3.26 ± 0.32	-1.22 ± 0.3
ACGGAGCAAUAUUACGCUUG	-1.71 ± 0.11	-0.212 ± 0.1
ACGGAGCAAUAUUACGGACC	–	-0.877 ± 0.34
ACGGAGCAAUAUUACGGAGG	-4.47 ± 0.46	-1.69 ± 0.19
ACGGAGCAAUAUUACGGCAU	–	-1.53 ± 0.23
ACGGAGCAAUAUUACGGGGU	-3.65 ± 0.21	-1.45 ± 0.21
ACGGAGCAAUAUUACGUACU	-1.69 ± 0.091	-2.32 ± 0.16
ACGGAGCAAUAUUACGUAGC	–	-1.64 ± 0.21
ACGGAGCAAUAUUACGUCAA	-2.71 ± 0.39	-2.94 ± 0.36
ACGGAGCAAUAUUACGUCCA	-3.19 ± 0.17	-0.993 ± 0.15
ACGGAGCAAUAUUACGUGAG	-3.06 ± 0.28	-1.15 ± 0.19
ACGGAGCAAUAUUACGUUAC	–	-2.56 ± 0.22
ACGGAGCAAUAUUACGUUGU	-3.46 ± 0.14	-2.07 ± 0.13
ACGUAGCAAUAUUACGAAAG	-3.88 ± 0.25	-3.59 ± 0.31
ACGUAGCAAUAUUACGACCC	-0.864 ± 0.19	0.196 ± 0.22
ACGUAGCAAUAUUACGACCU	-0.0641 ± 0.099	0.527 ± 0.11
ACGUAGCAAUAUUACGACGG	-0.92 ± 0.11	-0.526 ± 0.13
ACGUAGCAAUAUUACGAUGU	-2.37 ± 0.14	-1.6 ± 0.17
ACGUAGCAAUAUUACGCGAC	-3.16 ± 0.21	-1.9 ± 0.22
ACGUAGCAAUAUUACGCGCC	-1.23 ± 0.19	-0.895 ± 0.25
ACGUAGCAAUAUUACGCUCG	-2.16 ± 0.12	-0.0752 ± 0.15
ACGUAGCAAUAUUACGGAGG	-4.05 ± 0.28	-2.53 ± 0.19

Sequence	self-splicing fitness (ln) (30 °C)	self-splicing fitness (ln) (37 °C)
ACGUAGCAAUAUUACGGCAC	–	-1.73 ± 0.42
ACGUAGCAAUAUUACGGCGA	0.0177 ± 0.1	0.229 ± 0.12
ACGUAGCAAUAUUACGGCGU	-3.88 ± 0.14	-2.48 ± 0.15
ACGUAGCAAUAUUACGUAUA	-3.36 ± 0.33	-2.1 ± 0.2
ACGUAGCAAUAUUACGUCUG	-2.47 ± 0.16	-2.71 ± 0.19
ACGUAGCAAUAUUACGUGUG	-3.26 ± 0.14	-3.01 ± 0.16
ACGUAGCAAUAUUACGUUCC	-3.29 ± 0.24	-2.04 ± 0.23
ACUAAGCAAUAUUACGACCC	-1.08 ± 0.25	-0.275 ± 0.32
ACUAAGCAAUAUUACGACCG	-0.45 ± 0.17	0.0545 ± 0.21
ACUAAGCAAUAUUACGACUA	-1.52 ± 0.14	-0.721 ± 0.14
ACUAAGCAAUAUUACGAGAA	-2.46 ± 0.28	-2.37 ± 0.26
ACUAAGCAAUAUUACGAGCA	-1.29 ± 0.086	-0.197 ± 0.098
ACUAAGCAAUAUUACGAGGG	-2.55 ± 0.17	-2.31 ± 0.24
ACUAAGCAAUAUUACGCCAA	-2.24 ± 0.12	-2.26 ± 0.16
ACUAAGCAAUAUUACGCCGU	-1.86 ± 0.2	-1.64 ± 0.18
ACUAAGCAAUAUUACGCUUC	-1.69 ± 0.17	-0.717 ± 0.14
ACUAAGCAAUAUUACGGACG	-0.961 ± 0.087	-0.106 ± 0.14
ACUAAGCAAUAUUACGGAGC	-2.87 ± 0.17	-0.628 ± 0.14
ACUAAGCAAUAUUACGGCAA	-0.655 ± 0.089	-0.133 ± 0.1
ACUAAGCAAUAUUACGGCUU	-2.2 ± 0.1	-1.27 ± 0.12
ACUAAGCAAUAUUACGGGCA	-1.27 ± 0.089	-0.405 ± 0.1
ACUAAGCAAUAUUACGGUUC	-3.92 ± 0.2	-1.42 ± 0.13
ACUAAGCAAUAUUACGUAGU	-3.04 ± 0.14	-3.45 ± 0.21
ACUAAGCAAUAUUACGUCUG	-1.37 ± 0.084	-0.847 ± 0.1

Sequence	self-splicing fitness (ln) (30 °C)	self-splicing fitness (ln) (37 °C)
ACUCAGCAAUAUUACGAAAG	-1.78 ± 0.12	-1.42 ± 0.15
ACUCAGCAAUAUUACGAACU	-0.166 ± 0.053	0.599 ± 0.066
ACUCAGCAAUAUUACGAAGA	-0.868 ± 0.1	-0.958 ± 0.11
ACUCAGCAAUAUUACGACCU	-0.248 ± 0.12	0.216 ± 0.13
ACUCAGCAAUAUUACGAGUC	-5.21 ± 0.29	-2.97 ± 0.2
ACUCAGCAAUAUUACGAUAG	-4.03 ± 0.24	-2.21 ± 0.17
ACUCAGCAAUAUUACGCCGC	-2.78 ± 0.28	-1.78 ± 0.43
ACUCAGCAAUAUUACGCCUA	-0.864 ± 0.15	-0.0704 ± 0.12
ACUCAGCAAUAUUACGCGCA	-0.615 ± 0.14	-0.153 ± 0.1
ACUCAGCAAUAUUACGCGCC	-1.17 ± 0.16	-0.503 ± 0.17
ACUCAGCAAUAUUACGCUGA	-3.74 ± 0.3	-3.15 ± 0.34
ACUCAGCAAUAUUACGCUGC	-3.36 ± 0.3	-2.24 ± 0.29
ACUCAGCAAUAUUACGCUUG	-1.83 ± 0.069	-0.599 ± 0.083
ACUCAGCAAUAUUACGCUUU	-1.85 ± 0.095	-0.42 ± 0.11
ACUCAGCAAUAUUACGGCCA	-1.28 ± 0.13	-0.0774 ± 0.16
ACUCAGCAAUAUUACGGCGC	-0.183 ± 0.068	0.000506 ± 0.097
ACUCAGCAAUAUUACGGGGC	-4.64 ± 0.34	-2.93 ± 0.44
ACUCAGCAAUAUUACGGUAA	-1.66 ± 0.092	-0.871 ± 0.081
ACUCAGCAAUAUUACGGUGG	-4.04 ± 0.22	-2.67 ± 0.18
ACUCAGCAAUAUUACGUCGA	-3.15 ± 0.25	-1.94 ± 0.18
ACUCAGCAAUAUUACGUGCA	-0.681 ± 0.095	-0.372 ± 0.11
ACUCAGCAAUAUUACGUUGC	-3.43 ± 0.16	-3.57 ± 0.26
ACUCAGCAAUAUUACGUUUG	-2.36 ± 0.095	-1.94 ± 0.14
ACUGAGCAAUAUUACGAGCG	-2.44 ± 0.14	-0.615 ± 0.13

Sequence	self-splicing fitness (ln) (30 °C)	self-splicing fitness (ln) (37 °C)
ACUGAGCAAUAUUACGAGGU	-2.91 ± 0.14	-1.99 ± 0.23
ACUGAGCAAUAUUACGAUAG	-5.01 ± 0.39	-1.78 ± 0.17
ACUGAGCAAUAUUACGAUGG	-2.16 ± 0.096	-1.13 ± 0.1
ACUGAGCAAUAUUACGCCAA	-3.45 ± 0.29	-2.74 ± 0.22
ACUGAGCAAUAUUACGCGUU	-3.38 ± 0.17	-1.51 ± 0.13
ACUGAGCAAUAUUACGCUCA	-3.23 ± 0.24	-1.87 ± 0.18
ACUGAGCAAUAUUACGCUUU	-2.53 ± 0.21	-1.37 ± 0.18
ACUGAGCAAUAUUACGGACC	-2.23 ± 0.26	-1.14 ± 0.26
ACUGAGCAAUAUUACGGCCG	-1.89 ± 0.17	-0.752 ± 0.2
ACUGAGCAAUAUUACGGCGC	-1.09 ± 0.088	-0.47 ± 0.11
ACUGAGCAAUAUUACGGGGA	-2.48 ± 0.17	-1.92 ± 0.18
ACUGAGCAAUAUUACGGGGU	-2.72 ± 0.14	-3.13 ± 0.28
ACUGAGCAAUAUUACGGUAU	-3.55 ± 0.18	-3.17 ± 0.26
ACUGAGCAAUAUUACGUACG	-2.42 ± 0.22	-2.07 ± 0.25
ACUGAGCAAUAUUACGUCGA	-3.59 ± 0.22	-2.07 ± 0.18
ACUUAGCAAUAUUACGAAUC	-3.59 ± 0.23	-0.386 ± 0.23
ACUUAGCAAUAUUACGACCG	-0.573 ± 0.18	-0.217 ± 0.26
ACUUAGCAAUAUUACGAGAU	-2.61 ± 0.2	-2.95 ± 0.24
ACUUAGCAAUAUUACGAGCC	-2.49 ± 0.3	-1.26 ± 0.31
ACUUAGCAAUAUUACGAGUA	0.101 ± 0.18	-1.33 ± 0.21
ACUUAGCAAUAUUACGAUCG	-1.4 ± 0.11	-1.23 ± 0.14
ACUUAGCAAUAUUACGAUUG	-3.17 ± 0.2	-0.306 ± 0.16
ACUUAGCAAUAUUACGCAAU	-3.64 ± 0.26	-2.05 ± 0.21
ACUUAGCAAUAUUACGCUCA	-0.842 ± 0.13	-0.196 ± 0.15
